The text below walks through data of publication PMC9282857.

As a reminder, the Kd is the equilibrium constant for the complex coming apart. Read a high Kd as a looser complex.

Common to all, as to experiment: ITC; Affinity-ITC calorimeter, 25°C; 20 mM Tris-HCl pH 7.5, 150 mM NaCl, 1 mM DTT; independent binding model
On the technique in general: In ITC the heat of successive injections is recorded.

The target of assay [1] is Pub1 (287-767) (S. pombe) (UniProt Q92462).
Assay [2] deals with pub1-F576A (S. pombe) (UniProt Q92462).
Assay [3] deals with Rsp5 WW1-HECT domain (224-809) (S. cerevisiae) (UniProt P39940).
Assay [4] addresses Rsp5 HECT domain (444-809) (S. cerevisiae) (UniProt P39940).

For the substance Any1 (17-361) (natural protein), the Kd in assay [1] came to 2100 nM. Substance “Any1 conjugated with K63 di-Ub (from UniProt P0CG63 1-76; P0CG63 1-76) (complex)” registered a Kd in assay [2] of 2300 nM. In assay [1], the fold enhancement of binding against non-conjugated Any1 was 8 fold.

“Art1 PY motifs containing region (661-710) (domain or fragment)” had a Kd in assay [3] of 3600 nM. In other words, the single-digit micromolar range.

Substance “K63 di-Ub with a distal end ubiquitin mutant (I44A) (from UniProt P0CG63 1-76; P0CG63 1-76) (complex)” displayed a Kd in assay [4] of 120000 nM.
